From patent US20220112291A1 (Pfizer, published 2022)

How the values were obtained:
[1] = molecular target: human CD1a expressed on cells (human, UniProt P06126 17-327); assay: cell-based or functional assay
[2] = molecular target: T1, human single-chain CD1a-β2M recombinant protein (Human B2M-CD1a ECD-Avi-His6) (human); assay: SPR (Biacore), IgG; antigen taken as human CD1a
T1 construct: Biotinylated in the HTRF, phage selection and Gyrolab assays; also called human CD1a; CD1a protein
T1 sequence (chain, as listed by the source limits assumed): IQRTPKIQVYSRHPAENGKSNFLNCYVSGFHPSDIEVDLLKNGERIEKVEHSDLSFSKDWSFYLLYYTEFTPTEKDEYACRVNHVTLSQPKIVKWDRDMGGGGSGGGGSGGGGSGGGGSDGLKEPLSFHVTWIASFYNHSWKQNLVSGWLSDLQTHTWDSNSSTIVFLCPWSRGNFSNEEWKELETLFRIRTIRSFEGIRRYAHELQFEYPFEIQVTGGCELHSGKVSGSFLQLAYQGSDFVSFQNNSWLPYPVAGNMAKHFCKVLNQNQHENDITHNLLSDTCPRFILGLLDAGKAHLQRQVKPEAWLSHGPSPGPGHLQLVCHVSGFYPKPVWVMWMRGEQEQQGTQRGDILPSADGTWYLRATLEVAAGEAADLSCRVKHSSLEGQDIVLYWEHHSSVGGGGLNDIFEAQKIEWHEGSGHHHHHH

Chain of human CD1a expressed on cells (P06126 17-327): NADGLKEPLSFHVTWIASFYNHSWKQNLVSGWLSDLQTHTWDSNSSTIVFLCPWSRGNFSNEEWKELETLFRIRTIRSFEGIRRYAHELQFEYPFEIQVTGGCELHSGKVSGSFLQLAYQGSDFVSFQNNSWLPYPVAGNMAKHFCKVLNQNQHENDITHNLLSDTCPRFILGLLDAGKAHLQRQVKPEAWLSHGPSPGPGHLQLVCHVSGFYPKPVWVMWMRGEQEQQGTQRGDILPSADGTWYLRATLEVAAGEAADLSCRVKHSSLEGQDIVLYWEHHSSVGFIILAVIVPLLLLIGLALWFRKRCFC

Binder | Inhibition of CD69 expression, IC50 [1] | Kd [2] | Inhibition of IL-2 production, IC50 [1]
Ab556 (antibody, human IgG1, kappa, V domains shown, Optimized variant of Ab138; human IgG1 effector null / kappa; HC with or without terminal lysine) VH: EVQLVESGGGLVQPGGSLRLSCAASGFTFTDHYMHWVRQAPGKGLEWVAFIRNSAGGYTTESNPAVKGRFTISRDNAKNSLYLQMNSLRAEDTAVYYCARETTRIPTGWFAYWGQGTLVTVSS VL: DIQMTQSPSSLSASVGDRVTITCLASEDIYFDLAWYQQKPGKAPKLLIYGGDRLKEGVPSRFSGSGSGTDYTLTISSLQPEDFATYYCQQSESYPYTFGQGTKLEIKR | 0.73 nM | 0.1 nM | 
Ab555 (antibody, human IgG1, kappa, V domains shown, Optimized variant of Ab138; human IgG1 effector null / kappa; HC with or without terminal lysine) VH: EVQLVESGGGLVQPGGSLRLSCAASGFTFTDHYMHWVRQAPGKGLEWVAFIRNSAGGYTTESNPAVKGRFTISRDNAKNSLYLQMNSLRAEDTAVYYCARETTRIPTGWFAYWGQGTLVTVSS VL: DIQMTQSPSSLSASVGDRVTITCLASEDIYFDLAWYQQKPGKAPKLLIYGGDRLKEGVPSRFSGSGSGTDYTLTISSLQPEDFATYYCQQSYSYPYTFGQGTKLEIKR | 0.99 nM | 0.27 nM | 
Ab559 (antibody, human IgG1, kappa, V domains shown, Optimized variant of Ab138; human IgG1 effector null / kappa; HC with or without terminal lysine) VH: EVQLVESGGGLVQPGGSLRLSCAASGFTFTDHYMHWVRQAPGKGLEWVAFIRNKAGGYTTESNPAVKGRFTISRDNAKNSLYLQMNSLRAEDTAVYYCARETTTIPTGWFAYWGQGTLVTVSS VL: DIQMTQSPSSLSASVGDRVTITCLASEDIYFDLAWYQQKPGKAPKLLIYGGDRLKEGVPSRFSGSGSGTDYTLTISSLQPEDFATYYCQQSYSYPYTFGQGTKLEIKR | 1.29 nM | 0.39 nM | 
Ab491 (antibody, human IgG1, kappa, V domains shown, Optimized variant of Ab138; human IgG1 effector null / kappa; HC with or without terminal lysine) VH: EVQLVESGGGLVQPGGSLRLSCAASGFTFTDHYMTWVRQAPGKGLEWVAFIRNKANGYTTESNPAVKGRFTISRDNAKNSLYLQMNSLRAEDTAVYYCARETTGIPTGWFAYWGQGTLVTVSS VL: DIQMTQSPSSLSASVGDRVTITCLASEDIYFDLAWYQQKPGKAPKLLIYGGDRLKEGVPSRFSGSGSGTDYTLTISSLQPEDFATYYCQQSYSYPYTFGQGTKLEIKR | 1.18 nM | 0.62 nM | 
Ab492 (antibody, human IgG1, kappa, V domains shown, Optimized variant of Ab138; human IgG1 effector null / kappa; HC with or without terminal lysine) VH: EVQLVESGGGLVQPGGSLRLSCAASGFTFTDHYMTWVRQAPGKGLEWVAFIRNKANGYTTESNPAVKGRFTISRDNAKNSLYLQMNSLRAEDTAVYYCARETTGIPTGWFAYWGQGTLVTVSS VL: DIQMTQSPSSLSASVGDRVTITCLASEDIYFDLAWYQQKPGKAPKLLIYGGDRLKEGVPSRFSGSGSGTDYTLTISSLQPEDFATYYCQQSESYPYTFGQGTKLEIKR | 1.18 nM | 0.77 nM | 
Ab504 (antibody, human IgG1, kappa, V domains shown, Optimized variant of Ab138; human IgG1 effector null / kappa; HC with or without terminal lysine) VH: EVQLVESGGGLVQPGGSLRLSCAASGFTFTDHYMHWVRQAPGKGLEWVAFIRNKAGGYTTESNPAVKGRFTISRDNAKNSLYLQMNSLRAEDTAVYYCARETTGIPTGWFAYWGQGTLVTVSS VL: DIQMTQSPSSLSASVGDRVTITCLASEDIYFDLAWYQQKPGKAPKLLIYGGDRLKDGVPSRFSGSGSGTDYTLTISSLQPEDFATYYCQQSESYPYTFGQGTKLEIKR | 1.69 nM | 0.53 nM | 
Ab514 (antibody, human IgG1, kappa, V domains shown, Optimized variant of Ab138; human IgG1 effector null / kappa; HC with or without terminal lysine) VH: EVQLVESGGGLVQPGGSLRLSCAASGFTFTDHYMHWVRQAPGKGLEWVAFIRNSAGGYTTESNPAVKGRFTISRDNAKNSLYLQMNSLRAEDTAVYYCARETTRIPTGWFAYWGQGTLVTVSS VL: DIQMTQSPSSLSASVGDRVTITCLASEDIYFDLAWYQQKPGKAPKLLIYGASTPKDGVPSRFSGSGSGTDYTLTISSLQPEDFATYYCQQSEKYPYTFGQGTKLEIKR | 0.99 nM | 0.28 nM | 
Ab560 (antibody, human IgG1, kappa, V domains shown, Optimized variant of Ab138; human IgG1 effector null / kappa; HC with or without terminal lysine) VH: EVQLVESGGGLVQPGGSLRLSCAASGFTFTDHYMHWVRQAPGKGLEWVAFIRNKAGGYTTESNPAVKGRFTISRDNAKNSLYLQMNSLRAEDTAVYYCARETTTIPTGWFAYWGQGTLVTVSS VL: DIQMTQSPSSLSASVGDRVTITCLASEDIYFDLAWYQQKPGKAPKLLIYGGDRLKEGVPSRFSGSGSGTDYTLTISSLQPEDFATYYCQQSESYPYTFGQGTKLEIKR | 1.61 nM | 0.35 nM | 

Results, then the binder that gave them:

Inhibition of CD69 expression, IC50 [1] | Kd [2] | Inhibition of IL-2 production, IC50 [1] | Binder
0.35 nM | 0.56 nM | 0.17 nM | Ab623 (antibody, human IgG1, kappa, V domains shown, Optimized variant of Ab138; human IgG1 effector null / kappa; HC with or without terminal lysine) VH: EVQLVESGGGLVQPGGSLRLSCAASGFTFEDHYMHWVRQAPGKGLEWVAHTRDKAGGYTTESNPAVKGRFTISRDNAKNSLYLQMNSLRAEDTAVYYCARETTRIPTGWFAYWGQGTLVTVSS VL: DIQMTQSPSSLSASVGDRVTITCLASEDIYFDLAWYQQKPGKAPKLLIYGGDRLKEGVPSRFSGSGSGTDYTLTISSLQPEDFATYYCQQSYSYPYTFGQGTKLEIKR
0.38 nM | 0.32 nM | 0.14 nM | Ab585 (antibody, human IgG1, kappa, V domains shown, Optimized variant of Ab138; human IgG1 effector null / kappa; HC with or without terminal lysine) VH: EVQLVESGGGLVQPGGSLRLSCAASGFTFTDHYMHWVRQAPGKGLEWVGHISGSAGGYTTESNPAVKGRFTISRDNAKNSLYLQMNSLRAEDTAVYYCARETTRIPTGWFAYWGQGTLVTVSS VL: DIQMTQSPSSLSASVGDRVTITCLASEDIYFDLAWYQQKPGKAPKLLIYGASTPKDGVPSRFSGSGSGTDYTLTISSLQPEDFATYYCQQSEKYPYTFGQGTKLEIKR
0.41 nM | 0.46 nM | 0.11 nM | Ab616 (antibody, human IgG1, kappa, V domains shown, Optimized variant of Ab138; human IgG1 effector null / kappa; HC with or without terminal lysine) VH: EVQLVESGGGLVQPGGSLRLSCAASGFTFEDHYMHWVRQAPGKGLEWVGHISGSAGGYTTESNPAVKGRFTISRDNAKNSLYLQMNSLRAEDTAVYYCARETTRIPTGWFAYWGQGTLVTVSS VL: DIQMTQSPSSLSASVGDRVTITCLASEDIYFDLAWYQQKPGKAPKLLIYGGDRLKEGVPSRFSGSGSGTDYTLTISSLQPEDFATYYCQQSYSYPYTFGQGTKLEIKR
0.51 nM | 0.41 nM | 0.19 nM | Ab657 (antibody, human IgG1, kappa, V domains shown, Optimized variant of Ab138; human IgG1 effector null / kappa; HC with or without terminal lysine) VH: EVQLVESGGGLVQPGGSLRLSCAASGFTFTDHYMHWVRQAPGKGLEWVAHTRDKAGGYTTESNPAVKGRFTISRDNAKNSLYLQMNSLRAEDTAVYYCARETTRIPTGWFAYWGQGTLVTVSS VL: DIQMTQSPSSLSASVGDRVTITCLASEDIYFDLAWYQQKPGKAPKLLIYGASTPKDGVPSRFSGSGSGTDYTLTISSLQPEDFATYYCQQSEKYPYTFGQGTKLEIKR
0.85 nM | 0.39 nM |  | Ab572 (antibody, human IgG1, kappa, V domains shown, Optimized variant of Ab138; human IgG1 effector null / kappa; HC with or without terminal lysine) VH: EVQLVESGGGLVQPGGSLRLSCAASGFTFTDHYMTWVRQAPGKGLEWVAFIRNKAGGYTTESNPAVKGRFTISRDNAKNSLYLQMNSLRAEDTAVYYCARETTGIPTGWFAYWGQGTLVTVSS VL: DIQMTQSPSSLSASVGDRVTITCLASEDIYFDLAWYQQKPGKAPKLLIYGGDRLKEGVPSRFSGSGSGTDYTLTISSLQPEDFATYYCQQSESYPYTFGQGTKLEIKR
0.44 nM | 0.21 nM | 0.09 nM | Ab610 (antibody, human IgG1, kappa, V domains shown, Optimized variant of Ab138; human IgG1 effector null / kappa; HC with or without terminal lysine) VH: EVQLVESGGGLVQPGGSLRLSCAASGFDFTDHYMHWVRQAPGKGLEWVAHTRDKAGGYTTESNPAVKGRFTISRDNAKNSLYLQMNSLRAEDTAVYYCARETTRIPTGWFAYWGQGTLVTVSS VL: DIQMTQSPSSLSASVGDRVTITCLASEDIYFDLAWYQQKPGKAPKLLIYGGDRLKEGVPSRFSGSGSGTDYTLTISSLQPEDFATYYCQQSESYPYTFGQGTKLEIKR
0.39 nM | 0.56 nM | 0.12 nM | Ab609 (antibody, human IgG1, kappa, V domains shown, Optimized variant of Ab138; human IgG1 effector null / kappa; HC with or without terminal lysine) VH: EVQLVESGGGLVQPGGSLRLSCAASGFTFEDHYMHWVRQAPGKGLEWVAHTRDKAGGYTTESNPAVKGRFTISRDNAKNSLYLQMNSLRAEDTAVYYCARETTRIPTGWFAYWGQGTLVTVSS VL: DIQMTQSPSSLSASVGDRVTITCLASEDIYFDLAWYQQKPGKAPKLLIYGGDRLKEGVPSRFSGSGSGTDYTLTISSLQPEDFATYYCQQSESYPYTFGQGTKLEIKR
0.3 nM | 0.52 nM | 0.08 nM | Ab599 (antibody, human IgG1, kappa, V domains shown, Optimized variant of Ab138; human IgG1 effector null / kappa; HC with or without terminal lysine) VH: EVQLVESGGGLVQPGGSLRLSCAASGFTFTDHYMHWVRQAPGKGLEWVGHISGSAGGYTTESNPAVKGRFTISRDNAKNSLYLQMNSLRAEDTAVYYCARETTRIPTGWFAYWGQGTLVTVSS VL: DIQMTQSPSSLSASVGDRVTITCLASEDIYFDLAWYQQKPGKAPKLLIYGGDRLKEGVPSRFSGSGSGTDYTLTISSLQPEDFATYYCQQSESYPYTFGQGTKLEIKR
0.48 nM | 0.54 nM | 0.22 nM | Ab656 (antibody, human IgG1, kappa, V domains shown, Optimized variant of Ab138; human IgG1 effector null / kappa; HC with or without terminal lysine) VH: EVQLVESGGGLVQPGGSLRLSCAASGFDFTDHYMHWVRQAPGKGLEWVAHTRDKAGGYTTESNPAVKGRFTISRDNAKNSLYLQMNSLRAEDTAVYYCARETTRIPTGWFAYWGQGTLVTVSS VL: DIQMTQSPSSLSASVGDRVTITCLASEDIYFDLAWYQQKPGKAPKLLIYGGDRLQEGVPSRFSGSGSGTDYTLTISSLQPEDFATYYCQQSYSYPYTFGQGTKLEIKR
0.35 nM | 1.3 nM | 0.17 nM | Ab624 (antibody, human IgG1, kappa, V domains shown, Optimized variant of Ab138; human IgG1 effector null / kappa; HC with or without terminal lysine) VH: EVQLVESGGGLVQPGGSLRLSCAASGFDFTDHYMHWVRQAPGKGLEWVAHTRDKAGGYTTESNPAVKGRFTISRDNAKNSLYLQMNSLRAEDTAVYYCARETTRIPTGWFAYWGQGTLVTVSS VL: DIQMTQSPSSLSASVGDRVTITCLASEDIYFDLAWYQQKPGKAPKLLIYGGDRLKEGVPSRFSGSGSGTDYTLTISSLQPEDFATYYCQQSYSYPYTFGQGTKLEIKR
0.73 nM | 0.27 nM |  | Ab579 (antibody, human IgG1, kappa, V domains shown, Optimized variant of Ab138; human IgG1 effector null / kappa; HC with or without terminal lysine) VH: EVQLVESGGGLVQPGGSLRLSCAASGFTFTDHYMTWVRQAPGKGLEWVAFIRNSAGGYTTESNPAVKGRFTISRDNAKNSLYLQMNSLRAEDTAVYYCARETTRIPTGWFAYWGQGTLVTVSS VL: DIQMTQSPSSLSASVGDRVTITCLASEDIYFDLAWYQQKPGKAPKLLIYGGDRLKEGVPSRFSGSGSGTDYTLTISSLQPEDFATYYCQQSYSYPYTFGQGTKLEIKR
